From paper PMC7438487, “Structural studies reveal flexible roof of active site responsible for ω-transaminase CrmG overcoming by-product inhibition” (Communications Biology, 2020)

Molecular target: ω-transaminase CrmG from Actinoalloteichus cyanogriseus WH1-2216-6 (Actinoalloteichus cyanogriseus WH1-2216-6)
Experiment: dynamic light scattering; apo CrmG at 4.8 mg/mL in 50 mM Tris buffer pH 7.5, 20 °C, DynaPro Titan

- stoichiometry N: 2
Substance: ω-transaminase CrmG from Actinoalloteichus cyanogriseus WH1-2216-6 (enzyme)
